Experimental data taken from patent US20190359687A1 (Bayer, published 2019).

B1: TPP-9424 FVIII-scFv fusion protein (other)
chain: DIQLTQSPSFLSASVGDRVTITCRASSSVRYIYWFQQKPGKAPKLLIYATSFRQSGVPSRFSGSGSGTEYTLTISSLQPEDFATYYCHQRNSFPYTFGQGTKLEIKGGGGSGGGGSGGGGSGGGGSEVQLVQSGAEVKKPGASVKVSCKASGYTFTTYAIHWVRQAPGQGLEWMGYINPSSGYTRYNPKFKGRVTMTRDKSTSTAYMELRSLRSDDTAVYYCWTGTRDYWGQGTTVTVSSGGGSGGGGSGLVPRGSGGGSGGGGSGATRRYYLGAVELSWDYMQSDLGELPVDARFPPRVPKSFPFNTSVVYKKTLFVEFTDHLFNIAKPRPPWMGLLGPTIQAEVYDTVVITLKNMASHPVSLHAVGVSYWKASEGAEYDDQTSQREKEDDKVFPGGSHTYVWQVLKENGPMASDPLCLTYSYLSHVDLVKDLNSGLIGALLVCREGSLAKEKTQTLHKFILLFAVFDEGKSWHSETKNSLMQDRDAASARAWPKMHTVNGYVNRSLPGLIGCHRKSVYWHVIGMGTTPEVHSIFLEGHTFLVRNHRQASLEISPITFLTAQTLLMDLGQFLLFCHISSHQHDGMEAYVKVDSCPEEPQLRMKNNEEAEDYDDDLTDSEMDVVRFDDDNSPSFIQIRSVAKKHPKTWVHYIAAEEEDWDYAPLVLAPDDRSYKSQYLNNGPQRIGRKYKKVRFMAYTDETFKTREAIQHESGILGPLLYGEVGDTLLIIFKNQASRPYNIYPHGITDVRPLYSRRLPKGVKHLKDFPILPGEIFKYKWTVTVEDGPTKSDPRCLTRYYSSFVNMERDLASGLIGPLLICYKESVDQRGNQIMSDKRNVILFSVFDENRSWYLTENIQRFLPNPAGVQLEDPEFQASNIMHSINGYVFDSLQLSVCLHEVAYWYILSIGAQTDFLSVFFSGYTFKHKMVYEDTLTLFPFSGETVFMSMENPGLWILGCHNSDFRNRGMTALLKVSSCDKNTGDYYEDSYEDISAYLLSKNNAIEPRSFSQNDENQSPRSFQKKTRHYFIAAVERLWDYGMSSSPHVLRNRAQSGSVPQFKKVVFQEFTDGSFTQPLYRGELNEHLGLLGPYIRAEVEDNIMVTFRNQASRPYSFYSSLISYEEDQRQGAEPRKNFVKPNETKTYFWKVQHHMAPTKDEFDCKAWAYFSDVDLEKDVHSGLIGPLLVCHTNTLNPAHGRQVTVQEFALFFTIFDETKSWYFTENMERNCRAPCNIQMEDPTFKENYRFHAINGYIMDTLPGLVMAQDQRIRWYLLSMGSNENIHSIHFSGHVFTVRKKEEYKMALYNLYPGVFETVEMLPSKAGIWRVECLIGEHLHAGMSTLFLVYSNKCQTPLGMASGHIRDFQITASGQYGQWAPKLARLHYSGSINAWSTKEPFSWIKVDLLAPMIIHGIKTQGARQKFSSLYISQFIIMYSLDGKKWQTYRGNSTGTLMVFFGNVDSSGIKHNIFNPPIIARYIRLHPTHYSIRSTLRMELMGCDLNSCSMPLGMESKAISDAQITASSYFTNMFATWSPSKARLHLQGRSNAWRPQVNNPKEWLQVDFQKTMKVTGVTTQGVKSLLTSMYVKEFLISSSQDGHQWTLFFQNGKVKVFQGNQDSFTPVVNSLDPPLLTRYLRIHPQSWVHQIALRMEVLGCEAQDLY
notes: also called PPB 7888
B2: TPP-9900 FVIII-scFv fusion protein (other)
chain: DIQLTQSPSFLSASVGDRVTITCRASSSVRYIYWFQQKPGKAPKLLIYATSFRQSGVPSRFSGSGSGTEYTLTISSLQPEDFATYYCHQRNSFPYTFGQGTKLEIKGGGGSGGGGSGGGGSGGGGSEVQLVQSGAEVKKPGASVKVSCKASGYTFTTYAIHWVRQAPGQGLEWMGYINPSSGYTRYNPKFKGRVTMTRDKSTSTAYMELRSLRSDDTAVYYCWTGTRDYWGQGTTVTVSSGGGSGGGGSGLVPRGSGGGSGGGGSGATRRYYLGAVELSWDYMQSDLGELPVDARFPPRVPKSFPFNTSVVYKKTLFVEFTDHLFNIAKPRPPWMGLLGPTIQAEVYDTVVITLKNMASHPVSLHAVGVSYWKASEGAEYDDQTSQREKEDDKVFPGGSHTYVWQVLKENGPMASDPLCLTYSYLSHVDLVKDLNSGLIGALLVCREGSLAKEKTQTLHKFILLFAVFDEGKSWHSETKNSLMQDRDAASARAWPKMHTVNGYVNRSLPGLIGCHRKSVYWHVIGMGTTPEVHSIFLEGHTFLVRNHRQASLEISPITFLTAQTLLMDLGQFLLFCHISSHQHDGMEAYVKVDSCPEEPQLRMKNNEEAEDYDDDLTDSEMDVVRFDDDNSPSFIQIRSVAKKHPKTWVHYIAAEEEDWDYAPLVLAPDDRSYKSQYLNNGPQRIGRKYKKVRFMAYTDETFKTREAIQHESGILGPLLYGEVGDTLLIIFKNQASRPYNIYPHGITDVRPLYSRRLPKGVKHLKDFPILPGEIFKYKWTVTVEDGPTKSDPRCLTRYYSSFVNMERDLASGLIGPLLICYKESVDQRGNQIMSDKRNVILFSVFDENRSWYLTENIQRFLPNPAGVQLEDPEFQASNIMHSINGYVFDSLQLSVCLHEVAYWYILSIGAQTDFLSVFFSGYTFKHKMVYEDTLTLFPFSGETVFMSMENPGLWILGCHNSDFRNRGMTALLKVSSCDKNTGDYYEDSYEDISAYLLSKNNAIEPRSFSQNDENQSPRSFQKKTRHYFIAAVERLWDYGMSSSPHVLRNRAQSGSVPQFKKVVFQEFTDGSFTQPLYRGELNEHLGLLGPYIRAEVEDNIMVTFRNQASRPYSFYSSLISYEEDQRQGAEPRKNFVKPNETKTYFWKVQHHMAPTKDEFDCKAWAYFSDVDLEKDVHSGLIGPLLVCHTNTLNPAHGRQVTVQEFALFFTIFDETKSWYFTENMERNCRAPCNIQMEDPTFKENYRFHAINGYIMDTLPGLVMAQDQRIRWYLLSMGSNENIHSIHFSGHVFTVRKKEEYKMALYNLYPGVFETVEMLPSKAGIWRVECLIGEHLHAGMSTLFLVYSNKCQTPLGMASGHIRDFQITASGQYGQWAPKLARLHYSGSINAWSTKEPFSWIKVDLLAPMIIHGIKTQGARQKFSSLYISQFIIMYSLDGKKWQTYRGNSTGTLMVFFGNVDSSGIKHNIFNPPIIARYIRLHPTHYSIRSTLRMELMGCDLNSCSMPLGMESKAISDAQITASSYFTNMFATWSPSKARLHLQGRSNAWRPQVNNPKEWLQVDFQKTMKVTGVTTQGVKSLLTSMYVKEFLISSSQDGHQWTLFFQNGKVKVFQGNQDSFTPVVNSLDPPLLTRYLRIHPQSWVHQIALRMEVLGCEAQDLYGGGSGGGGSGLVPRGSGGGSGGGGSGDIQLTQSPSFLSASVGDRVTITCRASSSVRYIYWFQQKPGKAPKLLIYATSFRQSGVPSRFSGSGSGTEYTLTISSLQPEDFATYYCHQRNSFPYTFGQGTKLEIKGGGGSGGGGSGGGGSGGGGSEVQLVQSGAEVKKPGASVKVSCKASGYTFTTYAIHWVRQAPGQGLEWMGYINPSSGYTRYNPKFKGRVTMTRDKSTSTAYMELRSLRSDDTAVYYCWTGTRDYWGQGTTVTVSS

Tests used:
[1] = biological target: T1, human glycophorin A on human red blood cells (human, UniProt P02724 20-150); test: partition to human RBC, human HemA plasma, 5 min
T1 construct: whole, on cells; also called human GPA; huGPA
T1 sequence (looked up): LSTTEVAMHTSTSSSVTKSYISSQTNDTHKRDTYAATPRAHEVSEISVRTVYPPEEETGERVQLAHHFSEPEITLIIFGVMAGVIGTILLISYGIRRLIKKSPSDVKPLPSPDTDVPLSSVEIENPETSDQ

[2] = biological target: T1, human glycophorin A on human red blood …; test: partition to human RBC, human HemA plasma, 120 min
Experimental: (§1) The supernatant containing plasma, platelets and white blood cells was discarded and the red blood cell pellet was resuspended in 10 pellet volumes of PBS (50 mM Phosphate buffer, pH7.4, 150 mM NaCl). The red blood cells were then pelleted by slow speed centrifugation and the red blood cells re-suspended in 10 volumes of PBS. This washing step was repeated 4 more times and the red blood cells finally resuspended in a volume of plasma from Hemophilia patients with less than 1% of normal levels of FVIII (GeorgeKing Bio-Medical, Overland Park, Kans.) to generate a total volume equal to the initial blood volume such that the RBC density was equal to that of normal whole blood. BDD and RBC targeted FVIII molecules were then spiked into RBC suspension in HemA plasma at 1 IU/mL, and incubated at room temperature for 2-3 hours with gentle rotation. […] An additional control was performed in which BDD or RBC targeted FVIII molecules were added at 11U/ml into the same human hemophilia A plasma and incubated for 5 minutes and 180 mins. These samples were used to determine the input FVIII activity in the presence of plasma which was used to calculate the percentage of the molecule that was bound to RBC. All plasma samples were then assayed together for FVIII activity using the Coatest SP assay (DiaPharma, Columbus, Ohio). The assay was performed following the manufacturer's instructions in a 96-well plate format. […] The plate was incubated at 37° C. for 10 minutes with shaking between each reagent addition. […] The amount of FVIII activity in the plasma reflects the amount of unbound FVIII. The FVIII activity of the same molecule spiked in to Hemophilia A plasma alone (no RBC) and incubated for 5 minutes was normalized to 100%.

[3] = biological target: T2, Cynomolgus monkey glycophorin A on Cynomolgus monkey red blood cells (Cynomolgus monkey); test: partition to Cyno RBC, human HemA plasma, 1 min;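 further: FVIII fusion spiked at 1 IU/mL into RBC suspension at whole-blood density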
T2 construct: whole, on cells; also called Cyno GPA; Cyno RBC

[4] = biological target: T2, Cynomolgus monkey glycophorin A on …; test: partition to Cyno RBC, human HemA plasma, 120 min;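 further: FVIII fusion spiked at 1 IU/mL into RBC suspension at whole-blood density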
Experimental: (§2) To evaluate partition to cynomolgus monkey or human red blood cells, whole blood was draw from Cynomolgus monkey or normal human volunteers in to anticoagulant with 4% sodium citrate (Sigma, St Louis, Mo.). The red blood cells were purified by layering the whole blood on to ficoll followed by low speed centrifugation. The supernatant containing plasma, platelets and white blood cells was discarded and the red blood cell pellet was resuspended in 10 pellet volumes of PBS (50 mM Phosphate buffer, pH7.4, 150 mM NaCl). The red blood cells were then pelleted by slow speed centrifugation and the red blood cells re-suspended in 10 volumes of PBS. This washing step was repeated 4 more times and the red blood cells finally resuspended in a volume of plasma from Hemophilia patients with less than 1% of normal levels of FVIII (GeorgeKing Bio-Medical, Overland Park, Kans.) to generate a total volume equal to the initial blood volume such that the RBC density was equal to that of normal whole blood. BDD and RBC targeted FVIII molecules were then spiked into RBC suspension in HemA plasma at 1 IU/mL, and incubated at room temperature for 2-3 hours with gentle rotation. […] An additional control was performed in which BDD or RBC targeted FVIII molecules were added at 11U/ml into the same human hemophilia A plasma and incubated for 5 minutes and 180 mins. These samples were used to determine the input FVIII activity in the presence of plasma which was used to calculate the percentage of the molecule that was bound to RBC. All plasma samples were then assayed together for FVIII activity using the Coatest SP assay (DiaPharma, Columbus, Ohio). The assay was performed following the manufacturer's instructions in a 96-well plate format. […] The plate was incubated at 37° C. for 10 minutes with shaking between each reagent addition.

[5] = biological target: T1, human glycophorin A on human red blood …; test: partition to human RBC, human HemA plasma, 30 min
[6] = biological target: T2, Cynomolgus monkey glycophorin A on …; test: partition to Cyno RBC, human HemA plasma, 5 min;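 further: FVIII fusion spiked at 1 IU/mL into RBC suspension at whole-blood density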
[7] = biological target: T1, human glycophorin A on human red blood …; test: partition to human RBC, human HemA plasma, 1 min
Experimental: as §1

[8] = biological target: T2, Cynomolgus monkey glycophorin A on …; test: partition to Cyno RBC, human HemA plasma, 15 min;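 further: FVIII fusion spiked at 1 IU/mL into RBC suspension at whole-blood density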
Experimental: as §2

[9] = biological target: T2, Cynomolgus monkey glycophorin A on …; test: partition to Cyno RBC, human HemA plasma, 30 min;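 further: FVIII fusion spiked at 1 IU/mL into RBC suspension at whole-blood density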
Experimental: as §2

[10] = biological target: T2, Cynomolgus monkey glycophorin A on …; test: partition to Cyno RBC, human HemA plasma, 60 min;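 further: FVIII fusion spiked at 1 IU/mL into RBC suspension at whole-blood density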
Experimental: as §2

[11] = biological target: T1, human glycophorin A on human red blood …; test: partition to human RBC, human HemA plasma, 120 min; remark: listed apart in the source
Experimental: as §1

[12] = biological target: T1, human glycophorin A on human red blood …; test: partition to human RBC, human HemA plasma, 60 min
Experimental: as §1

[13] = biological target: T1, human glycophorin A on human red blood …; test: partition to human RBC, human HemA plasma, 15 min
Experimental: as §1

| Binder | percentage bound to human RBC [1] | percentage bound to human RBC [2] | % bound to Cyno RBC [3] | % bound to Cyno RBC [4] | percentage bound to human RBC [5] | % bound to Cyno RBC [6] | percentage bound to human RBC [7] | % bound to Cyno RBC [8] | % bound to Cyno RBC [9] | % bound to Cyno RBC [10] | percentage bound to human RBC [11] | percentage bound to human RBC [12] | percentage bound to human RBC [13] |
| --- | --- | --- | --- | --- | --- | --- | --- | --- | --- | --- | --- | --- | --- |
| B1 | 90.5% | 95.6% | 62.9% | 89.1% | 94.5% | 83% | 76.5% | 87.2% | 87.8% | 89% | 95.6% | 95.2% | 94.4% |
| B2 | 34.4% | 71.8% | 30.9% | 55.1% | 57.7% | 38.2% | 19.3% | 40.6% | 43.2% | 52.9% | 71.8% | 66.9% | 52% |
